Laboratory results: publication PMC10453832, “Increased Actin Binding Is a Shared Molecular Consequence of Numerous SCA5 Mutations in β-III-Spectrin” (Cells, 2023)

Key:
[1] = molecular target: T1, F-actin from rabbit skeletal muscle (rabbit, UniProt P68135 1-377); test: co-sedimentation; 2 µM ABD protein with increasing F-actin (3-120 µM) in F-buffer (10 mM Tris pH 7.5, 150 mM NaCl, 0.5 mM ATP, 2 mM MgCl2, 1 mM DTT); 30 min at room temperature; 50,000 RPM 30 min 25 °C; ABD left in supernatant quantified by SDS-PAGE and Coomassie; one-site fit with Bmax constrained to 1; details: both partners purified
[2] = molecular target: T1, F-actin from rabbit skeletal muscle; test: as above; details: both partners purified; remark: listed apart in the source

Row | Binder | Kd [1] [µM] | Kd [2] [µM]
1 | β-III-spectrin actin-binding domain, wild-type (domain or fragment, Construct pE-SUMO-ABD WT; also called ABD WT; wild-type ABD; source: Rosetta 2 (DE3) E. coli, purified (Ni-NTA, tag cleaved with Ulp1, second Ni-NTA)) MSSTLSPTDFDSLEIQGQYSDINNRWDLPDSDWDNDSSSARLFERSRIKALADEREAVQKKTFTKWVNSHLARVTCRVGDLYSDLRDGRNLLRLLEVLSGEILPKPTKGRMRIHCLENVDKALQFLKEQKVHLENMGSHDIVDGNHRLTLGLVWTIILRFQIQDISVETEDNKEKKSAKDALLLWCQMKTAGYPNVNVHNFTTSWRDGLAFNAIVHKHRPDLLDFESLKKCNAHYNLQNAFNLAEKELGLTKLLDPEDVNVDQPDEKSIITYVATYYHYFSKMK | 55.2 | 
2 | β-III-spectrin actin-binding domain T62I (domain or fragment, mutation found in a patient; also called T62I ABD; source: Rosetta 2 (DE3) E. coli, purified (Ni-NTA, tag cleaved with Ulp1, second Ni-NTA)) MSSTLSPTDFDSLEIQGQYSDINNRWDLPDSDWDNDSSSARLFERSRIKALADEREAVQKKIFTKWVNSHLARVTCRVGDLYSDLRDGRNLLRLLEVLSGEILPKPTKGRMRIHCLENVDKALQFLKEQKVHLENMGSHDIVDGNHRLTLGLVWTIILRFQIQDISVETEDNKEKKSAKDALLLWCQMKTAGYPNVNVHNFTTSWRDGLAFNAIVHKHRPDLLDFESLKKCNAHYNLQNAFNLAEKELGLTKLLDPEDVNVDQPDEKSIITYVATYYHYFSKMK | 2.4 | 
3 | β-III-spectrin actin-binding domain K65E (domain or fragment, mutation found in a patient; also called K65E ABD; source: Rosetta 2 (DE3) E. coli, purified (Ni-NTA, tag cleaved with Ulp1, second Ni-NTA)) MSSTLSPTDFDSLEIQGQYSDINNRWDLPDSDWDNDSSSARLFERSRIKALADEREAVQKKTFTEWVNSHLARVTCRVGDLYSDLRDGRNLLRLLEVLSGEILPKPTKGRMRIHCLENVDKALQFLKEQKVHLENMGSHDIVDGNHRLTLGLVWTIILRFQIQDISVETEDNKEKKSAKDALLLWCQMKTAGYPNVNVHNFTTSWRDGLAFNAIVHKHRPDLLDFESLKKCNAHYNLQNAFNLAEKELGLTKLLDPEDVNVDQPDEKSIITYVATYYHYFSKMK | < 1 | 
4 | β-III-spectrin actin-binding domain F160C (domain or fragment, mutation found in a patient; The methods paragraph prints F16C, everywhere else F160C; also called F160C ABD; F16C (as printed in the methods); source: Rosetta 2 (DE3) E. coli, purified (Ni-NTA, tag cleaved with Ulp1, second Ni-NTA)) MSSTLSPTDFDSLEIQGQYSDINNRWDLPDSDWDNDSSSARLFERSRIKALADEREAVQKKTFTKWVNSHLARVTCRVGDLYSDLRDGRNLLRLLEVLSGEILPKPTKGRMRIHCLENVDKALQFLKEQKVHLENMGSHDIVDGNHRLTLGLVWTIILRCQIQDISVETEDNKEKKSAKDALLLWCQMKTAGYPNVNVHNFTTSWRDGLAFNAIVHKHRPDLLDFESLKKCNAHYNLQNAFNLAEKELGLTKLLDPEDVNVDQPDEKSIITYVATYYHYFSKMK | < 1 | 
5 | β-III-spectrin actin-binding domain D255G (domain or fragment, mutation found in a patient; also called D255G ABD; source: Rosetta 2 (DE3) E. coli, purified (Ni-NTA, tag cleaved with Ulp1, second Ni-NTA)) MSSTLSPTDFDSLEIQGQYSDINNRWDLPDSDWDNDSSSARLFERSRIKALADEREAVQKKTFTKWVNSHLARVTCRVGDLYSDLRDGRNLLRLLEVLSGEILPKPTKGRMRIHCLENVDKALQFLKEQKVHLENMGSHDIVDGNHRLTLGLVWTIILRFQIQDISVETEDNKEKKSAKDALLLWCQMKTAGYPNVNVHNFTTSWRDGLAFNAIVHKHRPDLLDFESLKKCNAHYNLQNAFNLAEKELGLTKLLGPEDVNVDQPDEKSIITYVATYYHYFSKMK | 7.3 | 
6 | β-III-spectrin actin-binding domain L253P (domain or fragment, Construct pE-SUMO-ABD-L253P; Mutation found in SCA5 patients; also called L253P ABD; source: Rosetta 2 (DE3) E. coli, purified (Ni-NTA, tag cleaved with Ulp1, second Ni-NTA)) MSSTLSPTDFDSLEIQGQYSDINNRWDLPDSDWDNDSSSARLFERSRIKALADEREAVQKKTFTKWVNSHLARVTCRVGDLYSDLRDGRNLLRLLEVLSGEILPKPTKGRMRIHCLENVDKALQFLKEQKVHLENMGSHDIVDGNHRLTLGLVWTIILRFQIQDISVETEDNKEKKSAKDALLLWCQMKTAGYPNVNVHNFTTSWRDGLAFNAIVHKHRPDLLDFESLKKCNAHYNLQNAFNLAEKELGLTKPLDPEDVNVDQPDEKSIITYVATYYHYFSKMK | < 1 | 
7 | β-III-spectrin actin-binding domain K61E (domain or fragment, mutation found in a patient; also called K61E ABD; source: Rosetta 2 (DE3) E. coli, purified (Ni-NTA, tag cleaved with Ulp1, second Ni-NTA)) MSSTLSPTDFDSLEIQGQYSDINNRWDLPDSDWDNDSSSARLFERSRIKALADEREAVQKETFTKWVNSHLARVTCRVGDLYSDLRDGRNLLRLLEVLSGEILPKPTKGRMRIHCLENVDKALQFLKEQKVHLENMGSHDIVDGNHRLTLGLVWTIILRFQIQDISVETEDNKEKKSAKDALLLWCQMKTAGYPNVNVHNFTTSWRDGLAFNAIVHKHRPDLLDFESLKKCNAHYNLQNAFNLAEKELGLTKLLDPEDVNVDQPDEKSIITYVATYYHYFSKMK | < 1 | 
8 | β-III-spectrin actin-binding domain V58M (domain or fragment, mutation found in a patient; also called V58M ABD; source: Rosetta 2 (DE3) E. coli, purified (Ni-NTA, tag cleaved with Ulp1, second Ni-NTA)) MSSTLSPTDFDSLEIQGQYSDINNRWDLPDSDWDNDSSSARLFERSRIKALADEREAMQKKTFTKWVNSHLARVTCRVGDLYSDLRDGRNLLRLLEVLSGEILPKPTKGRMRIHCLENVDKALQFLKEQKVHLENMGSHDIVDGNHRLTLGLVWTIILRFQIQDISVETEDNKEKKSAKDALLLWCQMKTAGYPNVNVHNFTTSWRDGLAFNAIVHKHRPDLLDFESLKKCNAHYNLQNAFNLAEKELGLTKLLDPEDVNVDQPDEKSIITYVATYYHYFSKMK | 10.2 | 
9 | β-III-spectrin actin-binding domain H278R (domain or fragment, mutation found in a patient; also called H278R ABD; source: Rosetta 2 (DE3) E. coli, purified (Ni-NTA, tag cleaved with Ulp1, second Ni-NTA)) MSSTLSPTDFDSLEIQGQYSDINNRWDLPDSDWDNDSSSARLFERSRIKALADEREAVQKKTFTKWVNSHLARVTCRVGDLYSDLRDGRNLLRLLEVLSGEILPKPTKGRMRIHCLENVDKALQFLKEQKVHLENMGSHDIVDGNHRLTLGLVWTIILRFQIQDISVETEDNKEKKSAKDALLLWCQMKTAGYPNVNVHNFTTSWRDGLAFNAIVHKHRPDLLDFESLKKCNAHYNLQNAFNLAEKELGLTKLLDPEDVNVDQPDEKSIITYVATYYRYFSKMK | 6.7 | 
10 | β-III-spectrin actin-binding domain T271I (domain or fragment, mutation found in a patient; also called T271I ABD; source: Rosetta 2 (DE3) E. coli, purified (Ni-NTA, tag cleaved with Ulp1, second Ni-NTA)) MSSTLSPTDFDSLEIQGQYSDINNRWDLPDSDWDNDSSSARLFERSRIKALADEREAVQKKTFTKWVNSHLARVTCRVGDLYSDLRDGRNLLRLLEVLSGEILPKPTKGRMRIHCLENVDKALQFLKEQKVHLENMGSHDIVDGNHRLTLGLVWTIILRFQIQDISVETEDNKEKKSAKDALLLWCQMKTAGYPNVNVHNFTTSWRDGLAFNAIVHKHRPDLLDFESLKKCNAHYNLQNAFNLAEKELGLTKLLDPEDVNVDQPDEKSIIIYVATYYHYFSKMK | < 1 | 
11 | β-III-spectrin actin-binding domain Y272H (domain or fragment, mutation found in a patient and a parent; also called Y272H ABD; source: Rosetta 2 (DE3) E. coli, purified (Ni-NTA, tag cleaved with Ulp1, second Ni-NTA)) MSSTLSPTDFDSLEIQGQYSDINNRWDLPDSDWDNDSSSARLFERSRIKALADEREAVQKKTFTKWVNSHLARVTCRVGDLYSDLRDGRNLLRLLEVLSGEILPKPTKGRMRIHCLENVDKALQFLKEQKVHLENMGSHDIVDGNHRLTLGLVWTIILRFQIQDISVETEDNKEKKSAKDALLLWCQMKTAGYPNVNVHNFTTSWRDGLAFNAIVHKHRPDLLDFESLKKCNAHYNLQNAFNLAEKELGLTKLLDPEDVNVDQPDEKSIITHVATYYHYFSKMK | 15.3 | 15.5
